Measurements published in patent publication WO2005058967A2 (dated 2005).

Legend:
[1] = biological target: insulin/IGF-I hybrid receptor isoform A (Hybrid-RsA) (UniProt P08069); test: displacement of 125I-IGF1 from immunocaptured Hybrid-RsA
[2] = biological target: T1, extracellular domain of human insulin-like growth factor-1 receptor (hIGF-IR) (human, UniProt P08069 31-935); test: ELISA on coated soluble IGF-IR, cos7 supernatants
T1 construct: extracellular domain; also called hIGF1-R; Human Insulin-Like Growth Factor I soluble Receptor (R & D Systems #391-GR)

[3] = biological target: T1, extracellular domain of human …; test: SPR (BIAcore X), antibody captured by anti-Fc on a CM5 chip, hIGF-IR extracellular domain as analyte at 12.5-200 nM, 25°C

Row | Molecule | binding result [2] | further results
1 | monoclonal antibody 1H7 | – | IC50 [1]: < 50 nM
2 | humanized 7C10 VL 2 combined with humanized 7C10 VH 2 (antibody, human IgG1, V domains shown, Human IgG1/kappa, cos7 supernatant; also called 7C10 hum 2 heavy chain with humanized 7C10 VL 2) VH: QVQLQESGPGLVKPSETLSLTCTVSGYSITGGYLWNWIRQPPGKGLEWIGYISYDGTNNYKPSLKDRVTISRDTSKNQFSLKLSSVTAADTAVYYCARYGRVFFDYWGQGTLVTVSS VL: DIVMTQSPLSLPVTPGEPASISCRSSQSIVHSNGNTYLQWYLQKPGQSPQLLIYKVSNRLYGVPDRFSGSGSGTDFTLKISRVEAEDVGVYYCFQGSHVPWTFGQGTKVEIK | binds | –
3 | A2CHM Mab (antibody, V domains shown) VH: QVQLQESGPGLVKPSETLSLTCTVSGYSISGGYLWNWIRQPPGKGLEWIGYISYDGTNNYKPSLKDRVTISVDTSKNQFSLKLSSVTAADTAVYYCARYGRVFFDYWGQGTLVTVSS VL: DIVMTQSPLSLPVTPGEPASISCRSSQSIVHSNGNTYLQWYLQKPGQSPQLLIYKVSNRLYGVPDRFSGSGSGTDFTLKISRVEAEDVGVYYCFQGSHVPWTFGQGTKVEIK | – | Kd [3]: 0.86 nM
4 | humanized 7C10 VL 2 combined with humanized 7C10 VH 3 (antibody, human IgG1, V domains shown, Human IgG1/kappa, cos7 supernatant; also called 7C10 hum 3 heavy chain with humanized 7C10 VL 2) VH: QVQLQESGPGLVKPSETLSLTCTVSGYSISGGYLWNWIRQPPGKGLEWIGYISYDGTNNYKPSLKDRVTISVDTSKNQFSLKLSSVTAADTAVYYCARYGRVFFDYWGQGTLVTVSS VL: DIVMTQSPLSLPVTPGEPASISCRSSQSIVHSNGNTYLQWYLQKPGQSPQLLIYKVSNRLYGVPDRFSGSGSGTDFTLKISRVEAEDVGVYYCFQGSHVPWTFGQGTKVEIK | binds | –
